Measured values taken from patent US12123042.

System: cytochrome C

Sequence of S. rebaudiana CPR1 (cytochrome P450 reductase) (chain, as listed by the source): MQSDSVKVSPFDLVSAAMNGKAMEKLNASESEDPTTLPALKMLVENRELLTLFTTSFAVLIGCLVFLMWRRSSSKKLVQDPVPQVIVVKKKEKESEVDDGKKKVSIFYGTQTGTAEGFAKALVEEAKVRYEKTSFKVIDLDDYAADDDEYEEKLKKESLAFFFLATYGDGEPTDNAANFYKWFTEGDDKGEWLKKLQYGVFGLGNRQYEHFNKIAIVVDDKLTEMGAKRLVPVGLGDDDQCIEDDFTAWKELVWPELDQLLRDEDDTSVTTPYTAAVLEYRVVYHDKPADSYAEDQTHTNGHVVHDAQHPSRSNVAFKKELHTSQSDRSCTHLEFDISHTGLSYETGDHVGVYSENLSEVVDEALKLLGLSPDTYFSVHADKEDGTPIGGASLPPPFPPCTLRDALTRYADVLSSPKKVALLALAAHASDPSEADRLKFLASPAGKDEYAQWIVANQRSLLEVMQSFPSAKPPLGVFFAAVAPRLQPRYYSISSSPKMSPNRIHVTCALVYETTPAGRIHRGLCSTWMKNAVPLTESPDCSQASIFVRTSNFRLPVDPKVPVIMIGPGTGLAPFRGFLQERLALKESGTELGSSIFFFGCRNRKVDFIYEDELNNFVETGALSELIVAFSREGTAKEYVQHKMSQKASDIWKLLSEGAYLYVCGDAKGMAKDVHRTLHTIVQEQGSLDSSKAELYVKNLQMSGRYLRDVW

S. rebaudiana CPR1 (cytochrome P450 reductase)
CPR activity (cytochrome C reductase assay, increase in absorbance at 550 nm, units/mg microsomal protein): 7- and 14-fold higher activity, respectively, compared to the negative control
